What was measured:
[1] = target: T1, translin (untagged, co-expressed);TRAX (human;human, UniProt Q15631;Q99598 1-228;1-290, |); test: UV-laser crosslinking (248 nm); DNA covalently linked to TRAX subunit; silver stain; 25 mM Tris-HCl pH 8.0, 100 mM NaCl, 1 mM EDTA, 30 min; temperature not stated; 4.5% native PAGE in 0.5x TBE; conditions: protein: recombinant;recombinant; tags: none;N-terminal 6xHis
[2] = target: T1, translin (untagged, co-expressed);TRAX; test: UV-laser crosslinking (248 nm); DNA covalently linked to TRAX subunit; 25 mM Tris-HCl pH 8.0, 100 mM NaCl, 1 mM EDTA, 30 min; temperature not stated; 4.5% native PAGE in 0.5x TBE; conditions: protein: recombinant;recombinant; tags: none;N-terminal 6xHis; label: 5'-32P (unlabeled in agarose EMSA)
translinB3 (untagged, …) [3] = target: translinB3 (untagged, co-expressed);TRAXB3 (human;human, UniProt Q15631;Q99598 1-228;1-290, R192T;K193N;R194S;Y195N|K241N;K242T;Y244N); test: EMSA; 100 nM complex, 200 nM DNA; 25 mM Tris-HCl pH 8.0, 100 mM NaCl, 1 mM EDTA, 30 min; temperature not stated; 4.5% native PAGE in 0.5x TBE; conditions: protein: recombinant;recombinant; tags: none;N-terminal 6xHis; label: 5'-32P (unlabeled in agarose EMSA)
translinB3 (untagged, …) [4] = target: translinB3 (untagged, co-expressed);TRAXB2 (human;human, UniProt Q15631;Q99598 1-228;1-290, R192T;K193N;R194S;Y195N|Q115L;H117N;R118A); test: as above; conditions: protein: recombinant;recombinant; tags: none;N-terminal 6xHis; label: 5'-32P (unlabeled in agarose EMSA)
[5] = target: translinB3 (untagged, co-expressed);TRAX (human;human, UniProt Q15631;Q99598 1-228;1-290, R192T;K193N;R194S;Y195N|); test: as above; conditions: protein: recombinant;recombinant; tags: none;N-terminal 6xHis; label: 5'-32P (unlabeled in agarose EMSA)
translinB2 (untagged, …) = target: translinB2 (untagged, co-expressed);TRAXB2 (human;human, UniProt Q15631;Q99598 1-228;1-290, R86T;H88N;H90N|Q115L;H117N;R118A); test: EMSA; 100 nM complex, 100 nM DNA; 25 mM Tris-HCl pH 8.0, 100 mM NaCl, 1 mM EDTA, 30 min; temperature not stated; 4.5% native PAGE in 0.5x TBE; conditions: protein: recombinant;recombinant; tags: none;N-terminal 6xHis; label: 5'-32P (unlabeled in agarose EMSA)
[6] = target: translinB2 (untagged, co-expressed);TRAX (human;human, UniProt Q15631;Q99598 1-228;1-290, R86T;H88N;H90N|); test: as above; conditions: protein: recombinant;recombinant; tags: none;N-terminal 6xHis; label: 5'-32P (unlabeled in agarose EMSA)
[7] = target: translin (untagged, co-expressed);TRAXB2 (human;human, UniProt Q15631;Q99598 1-228;1-290, |Q115L;H117N;R118A); test: as above; conditions: protein: recombinant;recombinant; tags: none;N-terminal 6xHis; label: 5'-32P (unlabeled in agarose EMSA)
[8] = target: T1, translin (untagged, co-expressed);TRAX; test: as above; conditions: protein: recombinant;recombinant; tags: none;N-terminal 6xHis; label: 5'-32P (unlabeled in agarose EMSA)
translinB3 = translinB3 (human, UniProt Q15631 1-228, R192T;K193N;R194S;Y195N); test: EMSA; 100 nM octamer, 200 nM labeled DNA; 25 mM Tris-HCl pH 8.0, 100 mM NaCl, 1 mM EDTA, 30 min; temperature not stated; 4.5% native PAGE in 0.5x TBE; conditions: protein: recombinant; tags: N-terminal 6xHis; chain copies: 8; label: 5'-32P (unlabeled in agarose EMSA)
translinB3, sequence (Q15631 whole entry R192T/K193N/R194S/Y195N): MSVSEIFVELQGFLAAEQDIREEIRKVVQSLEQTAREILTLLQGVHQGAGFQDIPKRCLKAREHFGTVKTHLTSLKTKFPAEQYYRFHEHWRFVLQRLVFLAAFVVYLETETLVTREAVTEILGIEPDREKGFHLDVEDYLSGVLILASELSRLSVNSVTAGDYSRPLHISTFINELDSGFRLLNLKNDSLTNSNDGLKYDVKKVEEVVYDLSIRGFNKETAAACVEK

T1 sequence (Q15631 whole entry, chain 1 of 2): as the sequence (Q15631 whole entry R192T/K193N/R194S/Y195N) above, with T192R, N193K, S194R, N195Y counted along it
T1 sequence (Q99598 whole entry, chain 2 of 2): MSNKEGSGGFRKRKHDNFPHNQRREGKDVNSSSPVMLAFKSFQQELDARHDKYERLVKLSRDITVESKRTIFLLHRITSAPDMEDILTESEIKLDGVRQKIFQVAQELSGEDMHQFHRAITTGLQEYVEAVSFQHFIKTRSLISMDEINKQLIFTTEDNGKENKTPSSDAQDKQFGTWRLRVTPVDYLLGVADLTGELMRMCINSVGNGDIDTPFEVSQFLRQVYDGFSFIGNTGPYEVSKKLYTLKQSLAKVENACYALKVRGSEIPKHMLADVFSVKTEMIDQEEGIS
translinB2 (untagged, co-expressed);TRAXB2, sequence (Q15631 whole entry R86T/H88N/H90N, chain 1 of 2): as the sequence (Q15631 whole entry R192T/K193N/R194S/Y195N) above, with R86T, H88N, H90N, T192R, N193K, S194R, N195Y counted along it
translinB2 (untagged, co-expressed);TRAXB2, sequence (Q99598 whole entry Q115L/H117N/R118A, chain 2 of 2): as the sequence (Q99598 whole entry, chain 2 of 2) above, with Q115L, H117N, R118A counted along it
translinB2 (untagged, co-expressed);TRAX, sequence (Q15631 whole entry R86T/H88N/H90N, chain 1 of 2): as the sequence (Q15631 whole entry R192T/K193N/R194S/Y195N) above, with R86T, H88N, H90N, T192R, N193K, S194R, N195Y counted along it
translinB2 (untagged, co-expressed);TRAX, sequence (Q99598 whole entry, chain 2 of 2): as the sequence (Q99598 whole entry, chain 2 of 2) above
translinB3 (untagged, co-expressed);TRAX, sequence (Q15631 whole entry R192T/K193N/R194S/Y195N, chain 1 of 2): as the sequence (Q15631 whole entry R192T/K193N/R194S/Y195N) above
translinB3 (untagged, co-expressed);TRAX, sequence (Q99598 whole entry, chain 2 of 2): as the sequence (Q99598 whole entry, chain 2 of 2) above
translinB3 (untagged, co-expressed);TRAXB2, sequence (Q15631 whole entry R192T/K193N/R194S/Y195N, chain 1 of 2): as the sequence (Q15631 whole entry R192T/K193N/R194S/Y195N) above
translinB3 (untagged, co-expressed);TRAXB2, sequence (Q99598 whole entry Q115L/H117N/R118A, chain 2 of 2): as the sequence (Q99598 whole entry, chain 2 of 2) above, with Q115L, H117N, R118A counted along it
translinB3 (untagged, co-expressed);TRAXB3, sequence (Q15631 whole entry R192T/K193N/R194S/Y195N, chain 1 of 2): as the sequence (Q15631 whole entry R192T/K193N/R194S/Y195N) above
translinB3 (untagged, co-expressed);TRAXB3, sequence (Q99598 whole entry K241N/K242T/Y244N, chain 2 of 2): as the sequence (Q99598 whole entry, chain 2 of 2) above, with K241N, K242T, Y244N counted along it
translin (untagged, co-expressed);TRAXB2, sequence (Q15631 whole entry, chain 1 of 2): as the sequence (Q15631 whole entry R192T/K193N/R194S/Y195N) above, with T192R, N193K, S194R, N195Y counted along it
translin (untagged, co-expressed);TRAXB2, sequence (Q99598 whole entry Q115L/H117N/R118A, chain 2 of 2): as the sequence (Q99598 whole entry, chain 2 of 2) above, with Q115L, H117N, R118A counted along it

Binder: CCTGTAGTAATGGCTGCATTGAACAGATGCATATCTTCCCCTG (ssDNA) [43-mer (trxB2 reverse primer)]
- binding result [1]: binds

Binder: GCCCTCCTGCCCTCCTTCCGCGGG (ssDNA) [Bcl-CL1 24-mer]
- binding result [2]: binds
- binding result (translinB3 (untagged, …) [3]): no binding
- binding result (translinB3 (untagged, …) [4]): no binding
- binding result [5]: no binding
- binding result (translinB2 (untagged, …)): binds
- binding result [6]: binds
- binding result [7]: binds
- binding result [8]: binds
- binding result (translinB3): no binding

Source: PMC3299731 (PLoS ONE, 2012)
